In patent US20220372147A1 (UNIVERSIT T STUTTGART, published 2022):
Residue numbers refer to the chain shown, from its start. Names may count otherwise.

Assays:
[1] = molecular target: T1, HER3-Fc fusion protein, extracellular domain (ECD) of HER3 (aa 21-643) fused to an Fc part (UniProt P21860 21-643); assay: ELISA, immobilized HER3-Fc, anti-His-HRP detection
T1 construct: range 21-643; not shown: Fc part

[2] = molecular target: T2, His-tagged HER3 protein, extracellular domain (ECD) of HER3 (aa 21-643) (UniProt P21860 21-643); assay: ELISA, immobilized HER3-His, anti-human Fc-HRP detection
T2 construct: range 21-643; also called HER3-His; not shown: His-tag

[3] = molecular target: T3, HER3 on HER3-expressing cancer cells (LIM1215, BT474) (UniProt P21860 20-1342, limits assumed); assay: flow cytometry on HER3-expressing BT474 cells, PE anti-human Fc
T3 construct: whole, on cells; also called HER3-expressing LIM1215 cells; HER3-expressing BT474 cells

[4] = molecular target: T4, CD3 on CD3-expressing Jurkat cells (human, UniProt P07766 23-207); assay: flow cytometry on CD3-expressing Jurkat cells, PE anti-human Fc
T4 construct: whole, on cells
T4 sequence (P07766 23-207): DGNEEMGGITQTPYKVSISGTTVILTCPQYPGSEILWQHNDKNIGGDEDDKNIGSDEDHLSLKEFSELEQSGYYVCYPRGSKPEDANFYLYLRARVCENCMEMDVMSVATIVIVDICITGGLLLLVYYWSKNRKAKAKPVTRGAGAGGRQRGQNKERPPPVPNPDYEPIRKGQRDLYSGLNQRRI

[5] = molecular target: T3, HER3 on HER3-expressing cancer cells …; assay: flow cytometry on HER3-expressing LIM1215 cells, PE anti-human Fc
[6] = molecular target: T3, HER3 on HER3-expressing cancer cells …; assay: cell-based or functional assay
[7] = molecular target: T5, MET Fc fusion protein, extracellular domain (ECD) of MET (aa 25-787) (UniProt P08581 25-787); assay: ELISA, immobilized MET-Fc, anti-human Fab-HRP detection
T5 construct: range 25-787; not shown: Fc part
T5 sequence (P08581 25-787 limits assumed): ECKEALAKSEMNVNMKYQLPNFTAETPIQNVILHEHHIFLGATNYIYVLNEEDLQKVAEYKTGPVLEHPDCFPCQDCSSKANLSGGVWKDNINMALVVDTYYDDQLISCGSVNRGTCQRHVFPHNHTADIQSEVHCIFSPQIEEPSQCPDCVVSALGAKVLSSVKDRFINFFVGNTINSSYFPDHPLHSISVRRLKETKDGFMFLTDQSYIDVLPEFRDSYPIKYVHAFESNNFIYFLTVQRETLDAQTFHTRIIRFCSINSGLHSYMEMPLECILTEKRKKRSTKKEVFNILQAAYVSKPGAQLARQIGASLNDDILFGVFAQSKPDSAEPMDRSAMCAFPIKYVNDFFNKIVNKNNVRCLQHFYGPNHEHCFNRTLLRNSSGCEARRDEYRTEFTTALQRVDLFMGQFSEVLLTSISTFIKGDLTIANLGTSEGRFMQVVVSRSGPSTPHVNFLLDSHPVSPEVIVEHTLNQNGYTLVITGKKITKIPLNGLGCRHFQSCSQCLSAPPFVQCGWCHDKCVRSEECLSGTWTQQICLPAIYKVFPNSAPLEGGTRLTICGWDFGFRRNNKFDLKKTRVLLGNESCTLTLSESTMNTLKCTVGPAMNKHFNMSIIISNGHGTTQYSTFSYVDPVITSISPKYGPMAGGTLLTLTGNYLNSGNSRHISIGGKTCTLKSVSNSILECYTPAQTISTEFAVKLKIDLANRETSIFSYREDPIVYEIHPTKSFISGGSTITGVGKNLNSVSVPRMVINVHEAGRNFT

[8] = molecular target: T6, mouse CD3 on murine spleenocytes (mouse, UniProt P22646 22-189); assay: flow cytometry on murine spleenocytes (mouse CD3), PE anti-human Fc
T6 construct: whole, on cells; also called murine CD3-expressing murine spleenocytes; moCD3
T6 sequence (P22646 22-189): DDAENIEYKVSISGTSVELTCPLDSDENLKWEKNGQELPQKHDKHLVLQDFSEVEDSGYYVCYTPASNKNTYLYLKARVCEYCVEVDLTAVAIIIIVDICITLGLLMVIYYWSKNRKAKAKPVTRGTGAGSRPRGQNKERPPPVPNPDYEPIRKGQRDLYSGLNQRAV

[9] = molecular target: T7, FAP on FAP-expressing HT1080-FAP cells (UniProt Q12884 1-760, limits assumed); assay: flow cytometry on FAP-expressing HT1080-FAP cells, PE anti-human Fc
T7 construct: whole, on cells

B1: Fv3-43-hetEHD2 eFab molecule 8 (C102T Fd; C14T,N39Q light chain) (Fab, V domains shown)
VH: QVQLQQSGPGLVKPSQTLSLTCAISGDSVSSNRAAWNWIRQSPSRGLEWLGRTYYRSKWYNDYAQSLKSRITINPDTPKNQFSLQLNSVTPEDTAVYYCARDGQLGLDALDIWGQGTMVTVSS
VL: QAGLTQPPAVSVAPGQTASITCGRDNIGSRSVHWYQQKPGQAPVLVVYDDSDRPAGIPERFSGSNYENTATLTISRVEAGDEADYYCQVWGITSDHVVFGGGTKLTVLD
notes: Monovalent anti-HER3 Fab-like molecule; His-tag on the Fd chain
- EC50 [1]: 6.2 nM

B2: bivalent and monospecific eIg molecule targeting HER3 (antibody, V domains shown)
VH: B1 VH
VL: B1 VL with D109G
notes: Homodimerizing Fc; also called monospecific, bivalent eIg antibody; anti-HER3 bivalent eIg
- EC50 [2]: 1.4 nM

B3: Fv3-43-hetEHD2 eFab molecule 2 (C102W Fd; C14T,N39Q light chain) (Fab, V domains shown)
VH: B1 VH
VL: B1 VL
notes: as for B1
- EC50 [1]: 7.3 nM

B4: Fv3-43-hetEHD2 eFab molecule 1 (C102A Fd; C14A,N39Q light chain) (Fab, V domains shown)
VH: B1 VH
VL: B1 VL
notes: Monovalent anti-HER3 Fab-like molecule; His-tag on the Fd chain; also called C14A,N39Q:N39,C102A
- EC50 [1]: 12.1 nM

B5: Fv3-43-hetEHD2 eFab molecule 9 (C102S Fd; C14S,N39Q light chain) (Fab, V domains shown)
VH: B1 VH
VL: B1 VL
notes: N-glycan only on the Fd EHD2-2 domain; also called originally used eFab (C14S,N39Q:N39,C102S)
- EC50 [1]: 3.7 nM

B6: Fv3-43-hetEHD2 eFab molecule 3 (C102N Fd; C14A,N39Q light chain) (Fab, V domains shown)
VH: B1 VH
VL: B1 VL
notes: Monovalent anti-HER3 Fab-like molecule; His-tag on the Fd chain; also called C14A,N39Q:N39,C102N
- EC50 [1]: 4.8 nM

B7: Fv3-43-hetEHD2 eFab molecule 6 (C102N Fd; C14T,N39Q light chain) (Fab, V domains shown)
VH: B1 VH
VL: B1 VL
notes: Monovalent anti-HER3 Fab-like molecule; His-tag on the Fd chain; also called C14T,N39Q:N39,C102N
- EC50 [1]: 4.1 nM

B8: Fv3-43-hetEHD2 eFab molecule 4 (C102T Fd; C14N,N39Q light chain) (Fab, V domains shown)
VH: B1 VH
VL: B1 VL
notes: Monovalent anti-HER3 Fab-like molecule; His-tag on the Fd chain; also called C14N,N39Q:N39,C102T
- EC50 [1]: 3 nM

B9: Fv3-43-hetEHD2 eFab molecule 7 (C102T Fd; C14W,N39Q light chain) (Fab, V domains shown)
VH: B1 VH
VL: B1 VL
notes: as for B1
- EC50 [1]: 7.1 nM

B10: Fv3-43-hetEHD2 eFab molecule 5 (C102A Fd; C14W,N39Q light chain) (Fab, V domains shown)
VH: B1 VH
VL: B1 VL
notes: as for B1
- EC50 [1]: 11 nM

B11: bispecific, trivalent eIg-Fab4 targeting HER3 and CD3 (bispecific antibody)
light 1: QAGLTQPPAVSVAPGQTASITCGRDNIGSRSVHWYQQKPGQAPVLVVYDDSDRPAGIPERFSGSNYENTATLTISRVEAGDEADYYCQVWGITSDHVVFGGGTKLTVLGQPKAAPSVTLFPPSSEELQANKATLVCLISDFYPGAVTVAWKADSSPVKAGVETTTPSKQSNNKYAASSYLSLTPEQWKSHRSYSCQVTHEGSTVEKTVAPTECS
heavy 1: not shown
light 2: not shown
heavy 2: QVQLQQSGPGLVKPSQTLSLTCAISGDSVSSNRAAWNWIRQSPSRGLEWLGRTYYRSKWYNDYAQSLKSRITINPDTPKNQFSLQLNSVTPEDTAVYYCARDGQLGLDALDIWGQGTMVTVSSASTKGPSVFPLAPSSKSTSGGTAALGCLVKDYFPEPVTVSWNSGALTSGVHTFPAVLQSSGLYSLSSVVTVPSSSLGTQTYICNVNHKPSNTKVDKKVEPKSCGGSGGGGSGGQVQLVQSGAEVKKPGSSVKVSCKASGGTFSGYTMNWVRQAPGQGLEWMGLINPYKGVSTYNGKFKDRVTITADKSTSTAYMELSSLRSEDTAVYYCARSGYYGDSDWYFDVWGQGTLVTVSSDFTPPTVKILQSSCDGGGHFPPTIQLLCLVSGYTPGTINITWLEDGQVMDVDLSTASTTQEGELASTQSELTLSQKHWLSDRTYTCQVTYQGHTFEDSTKKSADSNGTDKTHTCPPCPAPPVAGPSVFLFPPKPKDTLMISRTPEVTCVVVDVSHEDPEVKFNWYVDGVEVHNAKTKPREEQYNSTYRVVSVLTVLHQDWLNGKEYKCKVSNKGLPSSIEKTISKAKGQPREPQVCTLPPSRDELTKNQVSLSCAVKGFYPSDIAVEWESNGQPENNYKTTPPVLDSDGSFFLVSKLTVDKSRWQQGNVFSCSVMHEALHNHYTQKSLSLSPGK
- EC50 [3]: 0.6 nM
- EC50 [4]: 5.9 nM
- EC50 [5]: 0.21 nM
- EC50 value in cell killing (PBMC-mediated cytotoxicity on BT-474 cells, crystal violet) [6]: 0.2 nM
- EC50 value in cell killing (PBMC-mediated cytotoxicity on LIM1215 cells, crystal violet) [6]: 0.1 nM

B12: bispecific, trivalent eIg-Fab2 targeting HER3 and CD3 (bispecific antibody)
light 1: B11 light 1
light 2: not shown
heavy 1: not shown
heavy 2: not shown
- EC50 [3]: 1.7 nM
- EC50 [4]: 0.2 nM
- EC50 [5]: 1.3 nM

B13: bispecific bivalent anti-cMET x anti-HER3 eIgG1 (EHD2 configuration HC1-LC2) (bispecific antibody)
light 1: B11 light 1
heavy 1: not shown
heavy 2: not shown
light 2: DIQMTQSPSSLSASVGDRVTITCKSSQSLLYTSSQKNYLAWYQQKPGKAPKLLIYWASTRESGVPSRFSGSGSGTDFTLTISSLQPEDFATYYCQQYYAYPWTFGQGTKVEIKRTDFTPPTVKILQSSCDGGGHFPPTIQLLCLVSGYTPGTINITWLEDGQVMDVDLSTASTTQEGELASTQSELTLSQKHWLSDRTYTCQVTYQGHTFEDSTKKSADSN
notes: Four different polypeptide chains, knob-into-hole Fc
- EC50 [7]: 3.8 nM
- EC50 [2]: 1 nM

B14: bispecific bivalent anti-cMET x anti-HER3 eIgG2 (EHD2 configuration HC2-LC1) (bispecific antibody)
light 1: B11 light 1
heavy 1: not shown
heavy 2: not shown
light 2: B13 light 2 with C129S, N154Q, S217C
notes: as for B13
- EC50 [7]: 5.4 nM
- EC50 [2]: 1.4 nM

B15: bivalent and bispecific eIg molecule targeting FAP and mouse CD3, molecule I (bispecific antibody)
light 1: DIQMTQSPSSLSASVGDRVTITCRASKSVSTSAYSYMHWYQQKPGKAPKLLIYLASNLESGVPSRFSGSGSGTDFTLTISSLQPEDFATYYCQHSRELPYTFGQGTKLEIKRRTVAAPSVFIFPPSDEQLKSGTASVVCLLNNFYPREAKVQWKVDNALQSGNSQESVTEQDSKDSTYSLSSTLTLSKADYEKHKVYACEVTHQGLSSPVTKSFNRGEC
heavy 1: QVQLVQSGAEVKKPGASVKVSCKASGYTFTENIIHWVRQAPGQGLEWMGWFHPGSGSIKYNEKFKDRVTMTADTSTSTVYMELSSLRSEDTAVYYCARHGGTGRGAMDYWGQGTLVTVSSASTKGPSVFPLAPSSKSTSGGTAALGCLVKDYFPEPVTVSWNSGALTSGVHTFPAVLQSSGLYSLSSVVTVPSSSLGTQTYICNVNHKPSNTKVDKKVEPKSCGTDKTHTCPPCPAPPVAGPSVFLFPPKPKDTLMISRTPEVTCVVVDVSHEDPEVKFNWYVDGVEVHNAKTKPREEQYNSTYRVVSVLTVLHQDWLNGKEYKCKVSNKGLPSSIEKTISKAKGQPREPQVCTLPPSRDELTKNQVSLSCAVKGFYPSDIAVEWESNGQPENNYKTTPPVLDSDGSFFLVSKLTVDKSRWQQGNVFSCSVMHEALHNHYTQKSLSLSPGK
light 2: EVQLVESGGGLVQPGKSLKLSCEASGFTFSGYGMHWVRQAPGRGLESVAYITSSSINIKYADAVKGRFTVSRDNAKNLLFLQMNILKSEDTAMYYCARFDWDKNYWGQGTMVTVSSDFTPPTVKILQSSSDGGGHFPPTIQLLCLVSGYTPGTIQITWLEDGQVMDVDLSTASTTQEGELASTQSELTLSQKHWLSDRTYTCQVTYQGHTFEDSTKKCADSN
heavy 2: DIQMTQSPSSLPASLGDRVTINCQASQDISNYLNWYQQKPGKAPKLLIYYTNKLADGVPSRFSGSGSGRDSSFTISSLESEDIGSYYCQQYYNYPWTFGPGTKLEIKDFTPPTVKILQSSCDGGGHFPPTIQLLCLVSGYTPGTINITWLEDGQVMDVDLSTASTTQEGELASTQSELTLSQKHWLSDRTYTCQVTYQGHTFEDSTKKSADSNGTDKTHTCPPCPAPPVAGPSVFLFPPKPKDTLMISRTPEVTCVVVDVSHEDPEVKFNWYVDGVEVHNAKTKPREEQYNSTYRVVSVLTVLHQDWLNGKEYKCKVSNKGLPSSIEKTISKAKGQPREPQVYTLPPCRDELTKNQVSLWCLVKGFYPSDIAVEWESNGQPENNYKTTPPVLDSDGSFFLYSKLTVDKSRWQQGNVFSCSVMHEALHNHYTQKSLSLSPGK
notes: In molecule I the 2C11 VH sits on the 'light chain' and the VL on the Fc-bearing chain; also called eIg FAP × moCD3 I
- EC50 [8]: 7.3 nM
- EC50 [9]: 2.9 nM

B16: bivalent and bispecific eIg molecule targeting FAP and mouse CD3, molecule II (bispecific antibody)
light 1: B15 light 1
heavy 1: B15 heavy 1
light 2: DIQMTQSPSSLPASLGDRVTINCQASQDISNYLNWYQQKPGKAPKLLIYYTNKLADGVPSRFSGSGSGRDSSFTISSLESEDIGSYYCQQYYNYPWTFGPGTKLEIKDFTPPTVKILQSSSDGGGHFPPTIQLLCLVSGYTPGTIQITWLEDGQVMDVDLSTASTTQEGELASTQSELTLSQKHWLSDRTYTCQVTYQGHTFEDSTKKCADSN
heavy 2: EVQLVESGGGLVQPGKSLKLSCEASGFTFSGYGMHWVRQAPGRGLESVAYITSSSINIKYADAVKGRFTVSRDNAKNLLFLQMNILKSEDTAMYYCARFDWDKNYWGQGTMVTVSSDFTPPTVKILQSSCDGGGHFPPTIQLLCLVSGYTPGTINITWLEDGQVMDVDLSTASTTQEGELASTQSELTLSQKHWLSDRTYTCQVTYQGHTFEDSTKKSADSNGTDKTHTCPPCPAPPVAGPSVFLFPPKPKDTLMISRTPEVTCVVVDVSHEDPEVKFNWYVDGVEVHNAKTKPREEQYNSTYRVVSVLTVLHQDWLNGKEYKCKVSNKGLPSSIEKTISKAKGQPREPQVYTLPPCRDELTKNQVSLWCLVKGFYPSDIAVEWESNGQPENNYKTTPPVLDSDGSFFLYSKLTVDKSRWQQGNVFSCSVMHEALHNHYTQKSLSLSPGK
notes: also called eIg FAP × moCD3 II; second molecule
- EC50 [8]: 24.2 nM
- EC50 [9]: 2.7 nM
